Experimental data reported in PMC7958597, “In Vivo Biodistribution and Efficacy Evaluation of NeoB, A Radiotracer Targeted to GRPR, in Mice Bearing Gastrointestinal Stromal Tumor” (Cancers, 2021).
“And” between values parts separate entries of the source, which are not always exact repeats. Equal values may be shown once. Read-outs that look alike come from different tables or passages of the source.

Experiments:
[1] = system: SCID mice bearing GIST-882 tumors (GRPR expressing); assay: Biodistribution of [^177Lu]Lu-NeoB by organ sampling and gamma counting; type: in vivo
Experimental: (§1) All procedures were performed in accordance with the institutional guidelines and approved by the animal care and use committee of Grenoble University (APAFIS#6544-2016082615349282 v8). The study was performed on 6-weeks old male SCID mice (Charles River). A total of 82 mice were used, 42 for the biodistribution sub-study and 40 for the therapy sub-study. Mice were subcutaneously inoculated into the left flank with GIST-882 (2 to 4 × 10^6) in a 1:1 PBS/Matrigel® (Corning, Corning, NY, USA) mixture.
(§2) Biodistribution of [^177Lu]Lu-NeoB was evaluated when the tumor volume reached ~200 mm^3. The biodistribution was evaluated at 7 time points (1 h, 4 h, 4 h + block, 24 h, 48 h, 96 h, and 168 h). The compound was injected intravenously (100 µL/200 pmol/~0.8 MBq per mice). Moreover, an excess of 40 nmol unlabeled NeoB was co-injected in the mice of the 4 h + block condition. At the selected time point, mice were euthanized by CO2 inhalation, and the main organs and fluids were sampled and weighed. The activity was determined using a gamma well counter (Wizard^2 PerkinElmer, Waltham, MA, USA), the results were corrected for background, decay and sample weight, and the data were expressed as a % ID/g (percentage of injected dose per gram of tissue).

[2] = as above; type: in vivo, mice; details: male, mouse, iv, total radioactivity
Experimental: as §1, §2

[3] = system: GIST-882 tumor; assay: Therapeutic efficacy (tumor growth, survival without reaching limit tumor volume); type: in vivo, mice; details: for mice excluded due to tumor volume over the limit of 1500 mm^3: 100 days of follow-up, 5 out of 13 control mice reached the limit; for tumor volume in comparison to control group: 37 MBq i.v. once a week for 3 weeks, day 0-26
Experimental: as §1
(§3) Efficacy was evaluated on 40 mice when the tumor volume reached ~100 mm^3. Control mice were intravenously injected with saline (Control group, n = 13), whereas treated mice received either 400 pmol (400 pmol group, n = 13) or 800 pmol (800 pmol group, n = […]) of 37 MBq of [^177Lu]Lu-NeoB once a week for 3 weeks. Tumor size was recorded 3 times per week before and after therapy administration and 5 times per week during the 3 weeks of the therapy administration. When a tumor volume exceeding 1500 mm^3 the animal was removed from the study and euthanized by CO2 inhalation. Pancreas was then frozen, 10 µm-thick slices were stained using hemato-eosin saffron (HES) and subsequently analyzed by a histopathologist.

[4] = Stability of the radiolabeled preparation by radio-HPLC (RCP); type: physicochemical; details: 24 h after labeling; Symmetry C18, H2O/acetonitrile 0.1% TFA gradient
Experimental: ^177Lu^3+ in aqueous 0.04 M HCl solution was purchased from ITG (Garding, Germany). Chemicals for radiolabeling were of trace metal® grade. Radiochemical purity (RCP) of each radiolabeled solution was determined using a high performance liquid chromatography (HPLC) apparatus (Shimadzu, France) equipped with NaI (Tl) scintillation detectors (LabLogic, UK). The radiolabeling was performed as previously described (25). For the biodistribution sub study, 92 nmol of NeoB was radiolabeled with 370 MBq of ^177LuCl3 and the reaction was then incubated at 95 °C for 7 min. The concentration was then adjusted at 200 pmol/100 µL (0.8 MBq) and a sterilizing filtration was performed. A similar protocol was employed for the therapy sub-study, using 20 nmol of NeoB and 1850 MBq of Lu-177. The concentration was then adjusted at 400 pmol/100 µL (37 MBq). A second solution of 800 pmol per 100 µL (37 MBq) was obtained by the addition of unlabeled NeoB peptide. A 0.22 µm sterile filtration was then performed. Radiochemical purity (RCP) was determined immediately after labeling and at 24 h by radio-HPLC analysis using an analytical reverse-phase column (Symmetry C18, 5 μm, 150 × 4.6 mm). A gradient elution was performed using solvent A (H2O, 0.1% TFA) and solvent B (acetonitrile, 0.1% TFA) as mobile phase at a flow rate of 1 mL/min.

[5] = SPECT-CT quantification of tumor uptake; type: in vivo, mice; details: male, SCID, mouse, GIST-882 tumor, iv, total radioactivity, 37 MBq i.v., 24 h post injection, n = 3
Experimental: Dual single photon emission computed tomography and x-ray computed tomography (SPECT-CT) imaging were performed in a subset of 6 mice of the therapeutic efficacy sub-study (3 from 400 pmol group and 3 from 800 pmol group). Acquisitions were performed the day after [^177Lu]Lu-NeoB injection (24 h post injection). SPECT-CT acquisitions were performed using a dedicated camera (nanoscan SPECT/CT, Mediso, Budapest, Hungary). Animals were placed on a pathogen-free animal handling system (MulticellTM, Mediso, Budapest, Hungary) under gas anesthesia (isoflurane 1–2%). Whole body imaging was performed. SPECT duration was of approximately 35 min, and CT acquisition of 5 min (at 35 kvp). Acquisitions were reconstructed with Nucline software using Monte Carlo reconstruction and scatter and attenuation correction, corrected for decay and expressed as % injected dose per gram (% ID/g). Image analysis was performed using Vivoquant software (version 3.5, Invicro, Boston, MA, USA).

[6] = Tolerability in the efficacy sub-study (body weight, pancreas histology HES); type: in vivo, mice; details: 400 or 800 pmol, 37 MBq once a week for 3 weeks
Experimental: as §3

[7] = system: PC-3 bearing mice; details: cited from earlier work
Excerpt: In this study, we evaluate for the first time the theragnostic potential of [^177Lu]Lu-NeoB for tumor treatment by performing biodistribution and therapeutic studies in mice bearing GIST. In accordance with above mentioned finding, injected mass ranging from 200 to 800 pmol were employed. […] Indeed, in PC-3 be ...

[8] = from time activity curve 1-168 h, 200 pmol i.v.

For `CC(C)CC(CC(C)C)NC(=O)[C@H](Cc1cnc[nH]1)NC(=O)CNC(=O)[C@@H](NC(=O)[C@H](C)NC(=O)[C@H](Cc1c[nH]c2ccccc12)NC(=O)[C@H](CCC(N)=O)NC(=O)[C@@H](Cc1ccccc1)NC(=O)COCC(=O)Nc1ccc(CNC(=O)CN2CCN(CC(=O)O)CCN(CC(=O)O)CCN(CC(=O)O)CC2)cc1)C(C)C` [[^177Lu]Lu-NeoB, metal not drawn], which “uptake in GIST tumor” value ([1]; 4 h pi, 200 pmol/~0.8 MBq i.v., mean ± SD) is on record?
The value was 19.1 ± 3.9 % ID/g.

What about the “decrease of uptake in GIST tumor by co-injection of unlabeled NeoB” value ([1]; 4 h pi, 40 nmol unlabeled NeoB) of the same compound?
The value was greater than 98%.

And the “uptake in GIST tumor, 4 h + block” value ([1]; 4 h pi, co-injected with excess of 40 nmol unlabeled NeoB, mean ± SD)?
Its value is 0.3 ± 0.1 % ID/g.

What about the “uptake in adrenals, blood, GIST tumor, large and small bowel, pancreas and stomach when co-injected with excess unlabeled NeoB” value ([1]; 4 h pi, p < 0.05, multiple t tests, Holm-Sidak) of the same compound?
The value was “significantly reduced”.

What about the “tumor-to-pancreas ratio (maximum value)” value ([1]; at 168 h (1 week), mean ± SD) of the same compound?
Its value is greater than 300.

What about the half-life in pancreas [1, 8] of the same compound?
Its half-life in pancreas is 2.41 h and 2.4 h.

And the “half-life of retention in GIST tumor” value [1, 8]?
Its value is 40.19 h and 40 h.

And the tissue uptake at 1 h ([2]; SCID, GIST-882 tumor, 200 pmol/mouse, 1 h pi, 200 pmol/~0.8 MBq i.v., mean ± SD, read-out: uptake in GIST-882 tumor)?
The tissue uptake at 1 h was 21.6 ± 1.7 %ID/g.

What about the tissue uptake at 4 h ([2]; SCID, GIST-882 tumor, 200 pmol/mouse, 4 h pi, 200 pmol/~0.8 MBq i.v., mean ± SD, read-out: uptake in GIST tumor) of the same compound?
Its tissue uptake at 4 h is 19.1 ± 3.9 %ID/g.

And the tissue uptake at 24 h ([2]; SCID, GIST-882 tumor, 200 pmol/mouse, 24 h pi, 200 pmol i.v., mean ± SD)?
Its tissue uptake at 24 h is 13.4 ± 3.5 %ID/g.

And the tissue uptake at 48 h ([2]; SCID, GIST-882 tumor, 200 pmol/mouse, 48 h pi, 200 pmol i.v., mean ± SD)?
The tissue uptake at 48 h was 10.5 ± 1.6 %ID/g.

What about the tissue uptake at 96 h ([2]; SCID, GIST-882 tumor, 200 pmol/mouse, 96 h pi, 200 pmol i.v., mean ± SD) of the same compound?
Its tissue uptake at 96 h is 5.9 ± 0.3 %ID/g.

What about the tissue uptake at 168 h ([2]; SCID, GIST-882 tumor, 200 pmol/mouse, 168 h pi, 200 pmol i.v., mean ± SD) of the same compound?
Its tissue uptake at 168 h is 2.5 ± 0.7 %ID/g.

What about the tissue uptake at 4 h ([2]; SCID, GIST-882 tumor, 4 h pi, co-injected with excess of 40 nmol unlabeled NeoB, mean ± SD, read-out: uptake in GIST tumor, 4 h + block) of the same compound?
The tissue uptake at 4 h was 0.3 ± 0.1 %ID/g.

What about the tissue uptake at 1 h ([2]; SCID, bladder, 200 pmol/mouse, 1 h pi, 200 pmol/~0.8 MBq i.v., mean ± SD, read-out: uptake in bladder) of the same compound?
The tissue uptake at 1 h was 20.6 ± 19.7 %ID/g.

What about the tissue uptake at 4 h ([2]; SCID, large bowel content, 200 pmol/mouse, 4 h pi, 200 pmol/~0.8 MBq i.v., mean ± SD, read-out: uptake in large bowel content) of the same compound?
Its tissue uptake at 4 h is 10 ± 3.5 %ID/g.

What about the tissue uptake at 1 h ([2]; SCID, pancreas, 200 pmol/mouse, 1 h pi, 200 pmol/~0.8 MBq i.v., mean ± SD, read-out: uptake in pancreas) of the same compound?
Its tissue uptake at 1 h is 19.8 ± 2.6 %ID/g.

What about the tissue uptake at 4 h ([2]; SCID, pancreas, 200 pmol/mouse, 4 h pi, 200 pmol/~0.8 MBq i.v., mean ± SD, read-out: uptake in pancreas) of the same compound?
Its tissue uptake at 4 h is 8.5 ± 2 %ID/g.

What about the tissue uptake at 4 h ([2]; SCID, pancreas, 4 h pi, co-injected with excess of 40 nmol unlabeled NeoB, mean ± SD, read-out: uptake in pancreas, 4 h + block) of the same compound?
Its tissue uptake at 4 h is 0.1 %ID/g.

And the tissue to tissue ratio ([2]; SCID, tumor and kidney, 200 pmol/mouse, all investigated time points 1-168 h)?
Its tissue to tissue ratio is greater than 1.

And the tissue to tissue ratio at 96 h ([2]; SCID, tumor and kidney, 200 pmol/mouse, at 96 h, mean ± SD, read-out: tumor-to-kidney ratio (maximum value))?
Its tissue to tissue ratio at 96 h is 112 ± 5.

What about the tissue to tissue ratio at 48 h ([2]; SCID, tumor and liver, 200 pmol/mouse, at 48 h, mean ± SD, read-out: tumor-to-liver ratio (maximum value)) of the same compound?
The tissue to tissue ratio at 48 h was 54 ± 5.

What about the tissue to tissue ratio at 168 h ([2]; SCID, tumor and pancreas, 200 pmol/mouse, at 168 h (1 week), mean ± SD, read-out: tumor-to-pancreas ratio (maximum value)) of the same compound?
The tissue to tissue ratio at 168 h was 309 ± 148.

What about the excreta dose per gram or mL at 4 h ([2]; SCID, urine, 200 pmol/mouse, 4 h pi, 200 pmol/~0.8 MBq i.v., mean ± SD, read-out: uptake in urine) of the same compound?
The excreta dose per gram or mL at 4 h was 216 ± 193 %ID/g.

And the excreta dose per gram or mL at 1 h ([2]; urine, 200 pmol/mouse, 1 h pi, 200 pmol/~0.8 MBq i.v., GIST-882 bearing SCID mice, gamma counter, mean ± SD, read-out: uptake in urine)?
The excreta dose per gram or mL at 1 h was 600 ± 155 %ID/g.

And the tumor regression ([3]; 400 pmol dose, 37 MBq once a week for 3 weeks)?
The tumor regression was “complete tumor regression”.

What about the “mice excluded due to tumor volume over the limit of 1500 mm^3” value ([3]; 400 pmol group) of the same compound?
The value was “none”.

And the residual tumor ([3]; 400 pmol group, from day 65)?
Its residual tumor is “no residual tumor volume”.

What about the “tumor volume in comparison to control group” value ([3]; 400 pmol, p = 0.0001) of the same compound?
Its value is “significantly reduced”.

And the “mice excluded due to tumor volume over the limit of 1500 mm^3” value ([3]; 800 pmol group)?
The value was “none”.

And the “tumor volume in comparison to control group” value ([3]; 800 pmol, p = 0.0066)?
The value was “significantly reduced”.

What about the “stability after labeling (radiochemical purity by radio-HPLC)” value [4] of the same compound?
The value was “remained stable”.

What about the tissue uptake at 24 h ([5]; 400 pmol group) of the same compound?
Its tissue uptake at 24 h is roughly 11 %ID/g.

What about the tissue uptake at 24 h ([5]; 800 pmol group, p < 0.05 vs 400 pmol) of the same compound?
Its tissue uptake at 24 h is roughly 7 %ID/g.

And the “total body weight of treated animals” value [6]?
Its value is “No change”.

And the “off-target effect (inflammation, fibrosis, architecture alteration) on HES stained pancreatic sections” value ([6]; end of follow up)?
Its value is “no off-target effect”.

What about the pancreas half-life ([7]; 200 pmol) of the same compound?
Its pancreas half-life is 11 h.

What about the “tumor half-life in prostate tumors” value ([7]; 200 pmol) of the same compound?
The value was 28 h.

And the tumor-to-pancreas ratio ([7]; as early as 4 h after injection of 200 pmol)?
The tumor-to-pancreas ratio was greater than 1.
